Test results from patent publication US20030229006A1, “Amphiphilic oligomers” (priority 1993, published 2003).

How the values were obtained:
[1] = pH 1.3
Pepsin (Gastric) = conditions: pH 1.3
Pancreatin = conditions: pH 7.5
Chymotrypsin = conditions: pH 6
[2] = Serum insulin after oral microemulsion insulin formulation; format: in vivo, dogs; conditions: 1.0 mg/kg orally
Protocol: (§1) FIG. 6 is a graph of insulin and blood glucose levels as a function of time, after dosing of canine subjects with a microemulsion insulin formulation representative of the present invention. The respective curves shown in the graph include native Zinc insulin; glucose ( ), hex-insulin; glucose (▪); native Zinc insulin; insulin (Δ); and hex-insulin; insulin (Δ).
(§2) Glucose data were normalized to the baseline glucose levels (0 minutes). Dogs were dosed orally with one of two emulsion formulations (native Zinc insulin or Hex-insulin mixture). The dose was adjusted to 1.0 mg/kg. Samples were collected at 30 minute intervals. The data were corrected for Hex-insulin reactivity in the BMI ELISA and Pharmacia RIA tests.

[3] = Closed loop assay, serum insulin by ELISA; format: in vivo, Sprague-Dawley rats; conditions: 10 and 30 milligrams of insulin per kilogram
Protocol: FIG. 3 is a graph of ELISA assay results for native insulin in the NRS pool of various Sprague-Dawley rats, showing insulin concentration as a function of time, prior to and after dosing with insulin, at respective doses of 10 milligrams of insulin per kilogram of body weight, and at 30 milligrams of insulin per kilogram of body weight. Two rats were dosed at 10 milligrams insulin per kilogram of body weight (Rats C and I) and two rats were dosed at 30 milligrams insulin per kilogram of body weight (Rats K and L).
FIG. 4 is a graph of ELISA assay results for insulin in the NRS pool of various Sprague-Dawley rats, showing insulin concentration as a function of time, prior to and after dosing with insulin, at respective doses of 10 milligrams of insulin per kilogram of body weight, and at 30 milligrams of insulin per kilogram of body weight, wherein the insulin is administered as a conjugate, insulin-hexyl-PEG7-OMe.

albino mice = test: Blood glucose after oral glucose challenge in fasted mice (Example IV); format: in vivo
Protocol: Comparative studies using bovine insulin were conducted on polymer-insulin conjugates and on native insulin to determine their relative stability and activity in animal models. In the animal studies, the efficacy of the polymer-insulin in lowering the blood level was compared to that of native insulin. Female and male albino mice averaging 25 g in weight were fasted overnight and used in groups of five for each treatment conducted in several phases over a period of two days. […] Conjugate 1) Group 3, 100 μg/kg, orally); or Conjugate 1 (Group 4, 100 μg/kg, subcutaneously) at time 0. […] Animals were fasted overnight before treatment and for the duration of the study. All test materials were prepared in phosphate buffered saline, pH 7.4. […] At the scheduled sample time blood was collected from the tail vein and immediately analyzed for glucose content using a One Touch Digital Glucose Meter (Life Scan).

pancreatomized dogs = test: Blood glucose after oral microemulsion insulin formulation; format: in vivo; conditions: 1.0 mg/kg orally, emulsion formulation (native Zinc insulin or Hex-insulin mixture)
Protocol: as §1, §2

Row | Substance | Stability, Acid [1] [h] | Stability, Pepsin (Gastric) 1.5 units/mL (Pepsin (Gastric)) [min] | Stability, Pancreatin 6 units/mL (Pancreatin) [min] | Stability, Chymotrypsin (Chymotrypsin) [min] | Time of peak insulin immunoreactivity in the serum after dosing ([2]; emulsion formulation (native Zinc insulin or Hex-insulin mixture)) [min] | Serum insulin return to baseline ([2]; emulsion formulation, in all cases) [min] | Insulin concentration over the timecourse [3] | Duration of hypoglycemic effect (albino mice; 100 μg/kg subcutaneously) [h] | Blood glucose levels (albino mice; 100 μg/kg subcutaneously, 30 minute time point, control = Group 5, untreated) | Blood glucose levels lowered to a maximum of (albino mice; 1.5 mg/kg orally by gavage) | Time of maximum response after treatment (albino mice; 1.5 mg/kg orally by gavage) [min] | Glucose levels after four hours (albino mice; Group 2, 1.5 mg/kg orally) | Glucose return to baseline by (pancreatomized dogs) [min] | Time of maximal glucose depression (pancreatomized dogs) [min]
1 | Insulin (Na): native (bovine) insulin, sodium form, comparator in stability studies | 153 | 9 | 77 | 13 | – | – | – | – | – | – | – | – | – | –
2 | native insulin: unconjugated insulin comparator: bovine insulin in Example IV, native Zinc insulin emulsion in Example XIX | – | – | – | – | ≤ 30 | 120 to 240 | flat throughout the timecourse | 3.5 | approximately 30 % of control | 60 % of control | 30 | remained above control | 360 to 480 | 9 to 180
